The supplement of paper PMC9732359
± gives the uncertainty stated by the source.

Assay: protein stability index of a GFP-peptide fusion (yeast GPS) (PSI 1-4); higher = more stable; sorted into four equal gates, so the index is relative within each strain
Method in brief: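 Each library plasmid carries Cherry plus GFP with a tiled 17-residue yeast protein peptide fused downstream, and the pooled library was carried in yeast. Mid-log cultures in leucine-free medium were sorted into four equal gates by GFP/Cherry ratio. Reads from Illumina sequencing of PCR-amplified plasmids from each gate were assigned to strains by barcodes. Per peptide, the protein stability index was computed as the summed products of gate read frequency and gate number.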

| Sequence | protein stability index (doa10∆) | protein stability index (pdr5∆) | protein stability index (san1∆) | protein stability index (ubr1∆) |
| --- | --- | --- | --- | --- |
| SPEEQRSLLQEAIETCK [GAL11] | 1.88 ± 0.099 | 2.97 ± 0.13 | 2.63 ± 0.18 | 2.88 ± 0.069 |
| EGFAADDEPTTPAELVG [FAS1] | 3.3 ± 0.09 | 3.19 ± 0.092 | 3.2 ± 0.071 | 3.19 ± 0.076 |
| MSTELTVQSERAFQKQP [RPS11A] | 3.13 ± 0.1 | 2.97 ± 0.099 | 2.98 ± 0.11 | 2.75 ± 0.076 |
| SDTLKEFKIEQNNEQNP [YDL116W/NUP84] | 2.79 ± 0.23 | 3.01 ± 0.15 | 2.8 ± 0.1 | 3.3 ± 0.22 |
| EDVVAISSRTFGQRAVL [RPS0A] | 3.3 ± 0.11 | 3.03 ± 0.056 | 3.02 ± 0.085 | 3.1 ± 0.047 |
| ERGLKVKEYQLRDRNFS [RPL11A] | – | 2.63 ± 0.2 | – | – |
| NEETFTVPELEIPTQIY [ARP9] | 2.7 ± 0.065 | 2.77 ± 0.059 | 2.48 ± 0.064 | 2.92 ± 0.063 |
| LDRPEYLKKREAGEVKD [RPL10] | 3.27 ± 0.12 | 3.15 ± 0.15 | 3.35 ± 0.044 | 3.42 ± 0.084 |
| SNIEQTESLRVENSVLI [YIL149C/MLP2] | 3.25 ± 0.091 | 3.09 ± 0.14 | 3.08 ± 0.049 | 3.07 ± 0.064 |
| EKELQNEIKQLGSDSSD [SRB4] | 2.95 ± 0.1 | 2.81 ± 0.1 | 2.27 ± 0.087 | 2.85 ± 0.12 |
| DILQITKKPLMVKNVKP [SIR4] | 2.79 ± 0.063 | 2.72 ± 0.049 | 2.55 ± 0.069 | 2.63 ± 0.062 |
| VETKLETKVDELRYQSH [DSN1] | 2.86 ± 0.088 | 3.22 ± 0.074 | 3.31 ± 0.058 | 3.08 ± 0.073 |
| TGMSSMSPFLRKVVKPS [SRB4] | 2.76 ± 0.075 | 2.76 ± 0.088 | 1.97 ± 0.12 | 2.48 ± 0.049 |
| VRQKIKTLKRMIKESST [POP1] | 1.47 ± 0.039 | 1.68 ± 0.052 | 1.45 ± 0.081 | 1.93 ± 0.044 |
| PVYATIGVETGSEPLIQ [PRP28] | 2.84 ± 0.066 | 3.1 ± 0.076 | 2.92 ± 0.064 | 2.86 ± 0.12 |
| RNEVLESMDFLVLADAF [YCS4] | 2.04 ± 0.048 | 2.31 ± 0.086 | 2.43 ± 0.092 | 2.72 ± 0.048 |
| PVFHKKAKTTKKVVLRL [RPL42A] | 2.95 ± 0.11 | 1.92 ± 0.091 | 2.25 ± 0.094 | 1.98 ± 0.14 |
| PSLIQEEEEDTTTTANI [NUT1] | 3.04 ± 0.11 | 3.12 ± 0.16 | 3.18 ± 0.12 | 3.16 ± 0.19 |
| QEPSASQVKDSVTETES [SRP68] | 3.27 ± 0.13 | 2.93 ± 0.18 | 3.14 ± 0.18 | 2.81 ± 0.19 |
| DKDSTKEVASLPNKSTI [FAS2] | 3.13 ± 0.089 | 3.1 ± 0.12 | 3.02 ± 0.072 | 3.21 ± 0.14 |
| FYKNKYSSKPYKVDNMT [RPN2] | 2.44 ± 0.067 | 2.84 ± 0.072 | 2.79 ± 0.081 | 2.1 ± 0.075 |
| PIRINSTEEIEYIELEY [YMR129W/POM152] | 2.45 ± 0.095 | 3.04 ± 0.09 | 2.68 ± 0.091 | 2.82 ± 0.039 |
| AAQDVWNRADNHFKDTY [FAS1] | 3.05 ± 0.18 | 3.14 ± 0.1 | 3.19 ± 0.11 | 3.53 ± 0.13 |
| RDCIDISIFSTPGSVSL [PRP8] | 2.79 ± 0.11 | 2.88 ± 0.11 | 2.45 ± 0.1 | 3.02 ± 0.12 |
| RPPVKAILQEKILSILN [ECM29] | 1.46 ± 0.058 | 1.83 ± 0.084 | 1.71 ± 0.14 | 2 ± 0.11 |
| HQNVIIGSNGSGKSNFF [SMC3] | 3.07 ± 0.086 | 2.7 ± 0.091 | 2.84 ± 0.069 | 2.85 ± 0.057 |
| LNGGLQFVPELKEFTAK [FAS2] | 2.75 ± 0.11 | 2.72 ± 0.11 | 2.3 ± 0.092 | 1.83 ± 0.064 |
